Measurements as given in patent US20180291083A1 (IMMATICS BIOTECHNOLOGIES, published 2018).

B1: peptide VPPKKHLL (SEQ ID NO: 120) (peptide)
peptide: VPPKKHLL
notes: synthetic peptide; also called TRRAP peptide
B2: peptide TLKIRAEVL (SEQ ID NO: 116) (peptide)
peptide: TLKIRAEVL
notes: synthetic peptide; also called RALGPS2 peptide
B3: peptide DANSRTSQL (SEQ ID NO: 113) (peptide)
peptide: DANSRTSQL
notes: synthetic peptide; also called MAP3K1 peptide
B4: peptide LGHVRYVL (SEQ ID NO: 109) (peptide)
peptide: LGHVRYVL
notes: synthetic peptide; also called AGPAT5 peptide
B5: peptide ELYQRIYAF (SEQ ID NO: 115) (peptide)
peptide: ELYQRIYAF
notes: synthetic peptide; also called PIK3R6 peptide
B6: peptide DLRTKEVVF (SEQ ID NO: 119) (peptide)
peptide: DLRTKEVVF
notes: synthetic peptide; also called SIPA1L3 peptide
B7: peptide ILAIRQNAL (SEQ ID NO: 108) (peptide)
peptide: ILAIRQNAL
notes: as for B4
B8: peptide FGLARIYSF (SEQ ID NO: 110) (peptide)
peptide: FGLARIYSF
notes: synthetic peptide; also called CDK6 peptide
B9: peptide QAAQRTAL (SEQ ID NO: 107) (peptide)
peptide: QAAQRTAL
notes: synthetic peptide; also called AFF3 peptide
B10: peptide FEKEKKESL (SEQ ID NO: 118) (peptide)
peptide: FEKEKKESL
notes: synthetic peptide; also called SESN3 peptide
B11: peptide YIKTAKKL (SEQ ID NO: 117) (peptide)
peptide: YIKTAKKL
notes: as for B2
B12: peptide APLLRHWEL (SEQ ID NO: 112) (peptide)
peptide: APLLRHWEL
notes: synthetic peptide; also called HLA-DOA peptide
B13: peptide HNALRILTF (SEQ ID NO: 114) (peptide)
peptide: HNALRILTF
notes: synthetic peptide; also called NUP210 peptide
B14: peptide RPKKVNTL (SEQ ID NO: 121) (peptide)
peptide: RPKKVNTL
notes: synthetic peptide; also called ZBTB24 peptide

Assays:
HLA-A*24:02 = target: T1, HLA-A*24:02 (human); experiment: UV ligand exchange ELISA; exchange yield grade
T1 construct: Peptide-receptive MHC class I monomer made by UV cleavage of a UV-sensitive ligand
Summary of the method: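 Peptide–MHC complexes formed by UV-ligand exchange, in which a UV-cleavable peptide is replaced by the test peptide. Exchange yield measured by ELISA detecting β2m of stabilised complexes captured on streptavidin, against refolded HLA-A*02:01/MLA-001 monomer standards (15-500 ng/ml); samples diluted 100-fold.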

[1] = target: T2, human recombinant HLA-B*08:01 with b2m (human); experiment: pMHC stability assay at 37 C, mean half-life of b2m on heavy chain, grade (T1/2 >2 h = +; >4 h = ++; >6 h = +++; >10 h = ++++)
T2 construct: Peptide-receptive MHC class I used in the pMHC stability assay by ImmunAware; also called MHC heavy chain and b2m
Protocol: The peptide-MHC stability for HLA-B*08:01 peptides was performed by ImmunAware (Copenhagen, Denmark). The data were obtained using a proximity based, homogenous, real-time assay to measure the dissociation of peptides from HLA class I molecules. First human recombinant HLA-B*08:01 and b2m were expressed in E. coli and purified in a series of liquid chromatography based steps (Ferre et al., 2003; Ostergaard et al., 2001). Afterwards, the stability of a peptide-MHC complex (pMHC) can be determined by measuring the amount of b2m associated with the MHC heavy chain over time at 37° C. (Harndahl et al., 2012). The stability of each pMHC, expressed as the half life of b2m associated with the respective heavy chain, was calculated by fitting the data to a one-phase dissociation equation.

Row | Binder | peptide exchange yield (HLA-A*24:02) | mean half-life (T1/2) of peptide-MHC complex [1]
1 | RFPPTPPLF | > 75% | –
2 | B1 | – | 2 to 4 h
3 | B2 | – | 6 to 10 h
4 | B3 | – | 6 to 10 h
5 | B4 | – | 2 to 4 h
6 | B5 | – | 4 to 6 h
7 | B6 | – | 4 to 6 h
8 | B7 | – | 4 to 6 h
9 | B8 | – | 2 to 4 h
10 | B9 | – | 4 to 6 h
11 | B10 | – | 6 to 10 h
12 | B11 | – | 4 to 6 h
13 | B12 | – | 2 to 4 h
14 | B13 | – | 4 to 6 h
15 | B14 | – | 2 to 4 h
